Experimental findings from article PMC2841545 (Protein Engineering, Design and Selection, 2010) are described below.

For the experiment, the target named is ABL1 SH2 domain (Homo sapiens (clone BC059260 maps to …, UniProt P00519)). Briefly: ELISA.

Numbering of substitutions follows the chain as printed.

Sequence of ABL1 SH2 domain (Homo sapiens (P00519 whole entry, looked up, the tested form may be a part): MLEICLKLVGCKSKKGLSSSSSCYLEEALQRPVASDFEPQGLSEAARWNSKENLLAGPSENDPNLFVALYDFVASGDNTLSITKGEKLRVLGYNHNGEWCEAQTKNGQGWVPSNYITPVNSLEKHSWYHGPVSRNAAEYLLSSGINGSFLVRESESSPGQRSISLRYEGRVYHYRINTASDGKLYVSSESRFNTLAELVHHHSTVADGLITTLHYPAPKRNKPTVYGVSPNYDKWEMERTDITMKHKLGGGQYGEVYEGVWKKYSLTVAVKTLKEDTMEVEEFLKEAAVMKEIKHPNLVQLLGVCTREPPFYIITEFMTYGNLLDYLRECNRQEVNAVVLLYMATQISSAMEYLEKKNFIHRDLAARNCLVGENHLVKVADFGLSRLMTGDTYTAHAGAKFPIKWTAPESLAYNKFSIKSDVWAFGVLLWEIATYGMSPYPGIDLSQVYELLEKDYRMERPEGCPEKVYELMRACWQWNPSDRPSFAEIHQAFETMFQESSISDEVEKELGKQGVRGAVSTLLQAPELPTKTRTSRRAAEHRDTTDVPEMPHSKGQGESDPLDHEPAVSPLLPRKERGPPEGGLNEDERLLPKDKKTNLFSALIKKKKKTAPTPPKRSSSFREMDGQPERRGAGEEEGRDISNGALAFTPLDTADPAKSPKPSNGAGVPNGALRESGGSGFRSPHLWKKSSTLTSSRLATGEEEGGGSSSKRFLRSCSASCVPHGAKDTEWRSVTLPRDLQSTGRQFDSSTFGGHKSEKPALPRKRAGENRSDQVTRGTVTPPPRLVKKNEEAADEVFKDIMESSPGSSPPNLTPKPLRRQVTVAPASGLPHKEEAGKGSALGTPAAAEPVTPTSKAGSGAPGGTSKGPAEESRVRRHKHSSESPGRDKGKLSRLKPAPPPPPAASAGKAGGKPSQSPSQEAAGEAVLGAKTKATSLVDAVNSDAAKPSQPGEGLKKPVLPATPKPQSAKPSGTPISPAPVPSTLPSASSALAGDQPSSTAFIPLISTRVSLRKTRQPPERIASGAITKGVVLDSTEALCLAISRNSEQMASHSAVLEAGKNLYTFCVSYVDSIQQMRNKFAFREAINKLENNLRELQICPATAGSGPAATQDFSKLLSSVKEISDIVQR

B1: scFv 43H02 (Group ai, selected on ABL1) (scFv, V domains shown)
VH: EVQLLESGGGLVKPGGSLRLSCAASGFTFDDYAMHWVRQAPGKGLEWVSGISWNSGSIGYADSVKGRFTISRDNAKNSLYLQMNSLRAEDTALYYCAKGGPGIRYPDAFDIWGQGTLVTVSS
VL: not shown
Turning to B1, the binding result is reported as “binds”.

B2: scFv 43_E02 (Group aiii, selected on ABL1) (scFv, V domains shown)
VH: B1 VH with K13Q, G16R, L117M
VL: DIQMTQSPSSLSASVGDRVTITCRASQSIRNDLGWYQQKPGKAPKLLIYAASSLQSGVPSRFSGSGSGTDFTLTISSLQPEDFATYYCQQSSSTPITFGGGTKVEIK
Turning to B2, the binding result was “binds”.
